Values quoted from earlier work, collected in article PMC11820823.

How the values were obtained:
[1] = molecular target: EphA2 Sam (Mus musculus) (UniProt Q03145)
[2] = molecular target: EphA8 Sam (Mus musculus) (UniProt O09127); test: ITC
[3] = molecular target: EphA2 Sam (Homo sapiens) (UniProt P29317)
Sequence of EphA2 Sam (Homo sapiens) (P29317 901-971): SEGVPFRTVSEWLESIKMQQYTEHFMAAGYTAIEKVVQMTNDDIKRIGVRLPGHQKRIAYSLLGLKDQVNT

Sequence of SASH1 SH3-Sam1 (P59808 547-690): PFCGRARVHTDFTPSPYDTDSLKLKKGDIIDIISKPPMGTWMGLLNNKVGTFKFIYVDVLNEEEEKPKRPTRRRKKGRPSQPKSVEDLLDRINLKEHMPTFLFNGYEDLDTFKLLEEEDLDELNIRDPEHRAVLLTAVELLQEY
Sequence of EphA8 Sam (Mus musculus) (O09127 926-996): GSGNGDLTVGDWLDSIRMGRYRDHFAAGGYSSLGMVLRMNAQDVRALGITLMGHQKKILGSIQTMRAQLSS
Sequence of Ship2 Sam (O15357 1193-1258): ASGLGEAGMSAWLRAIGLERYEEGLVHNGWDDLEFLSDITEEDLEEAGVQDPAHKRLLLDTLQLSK
Sequence of SASH1 Sam1 (P59808 623-693): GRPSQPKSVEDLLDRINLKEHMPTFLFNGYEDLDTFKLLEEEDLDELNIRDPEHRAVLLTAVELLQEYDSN
Sequence of EphA2 Sam (Mus musculus) (Q03145 902-972): as the sequence (P29317 901-971) above, with A27V, T40S, D42E counted along it

Row | Substance | Kd [1] [nM] | Kd [2] [nM] | Kd [3] [nM]
1 | SASH1 SH3-Sam1 (from UniProt P59808) | 2520 | 1090 | 
2 | SASH1 Sam1 (from UniProt P59808) |  | 880 | 
3 | Ship2 Sam (from UniProt O15357) |  |  | 750
